From PMC5400505, “Dissection of the interaction between the intrinsically disordered YAP protein and the transcription factor TEAD” (eLife, 2017)
Where a chain is given by its changes, count along the chain named. Names may count otherwise.

B1: wt hYAP^50-171 (domain or fragment, human, UniProt P46937-1 50-171, looked up)
chain: AGHQIVHVRGDSETDLEALFNAVMNPKTANVPQTVPMRLRKLPDSFFKPPEPKSHSRQASTDAGTAGALTPQHVRAHSSPASLQLGAVSPGTLTPTGVVSGPAATPTAQHLRQSSFEIPDDV
notes: YAP (Yes-associated protein), human, residues 50-171 of NM_001130145.2; also called hYAP wt; Wild type; source: E. coli NiCo21 (DE3), purified (HisTrap, tag cleaved by HRV 3C protease, Resource S, Superdex 75); not shown: His6, N-terminal, cleaved
B2: hYAP^50-171 Ser94Ala (domain or fragment, human, UniProt P46937-1 50-171, looked up)
chain: B1 chain with S45A
notes: YAP (Yes-associated protein), human, residues 50-171 of NM_001130145.2; also called hYAP Ser94Ala; source: E. coli NiCo21 (DE3), purified (HisTrap, tag cleaved by HRV 3C protease, Resource S, Superdex 75); not shown: His6, N-terminal, cleaved
B3: hYAP^50-171 Leu65Ala (domain or fragment, human, UniProt P46937-1 50-171, looked up)
chain: B1 chain with L16A
notes: YAP (Yes-associated protein), human, residues 50-171 of NM_001130145.2; also called hYAP Leu65Ala; source: E. coli NiCo21 (DE3), purified (HisTrap, tag cleaved by HRV 3C protease, Resource S, Superdex 75); not shown: His6, N-terminal, cleaved
B4: hYAP^50-171 Phe95Ala (domain or fragment, human, UniProt P46937-1 50-171, looked up)
chain: B1 chain with F46A
notes: YAP (Yes-associated protein), human, residues 50-171 of NM_001130145.2; also called hYAP Phe95Ala; source: E. coli NiCo21 (DE3), purified (HisTrap, tag cleaved by HRV 3C protease, Resource S, Superdex 75); not shown: His6, N-terminal, cleaved
B5: hYAP^50-171 Phe96Ala (domain or fragment, human, UniProt P46937-1 50-171, looked up)
chain: B1 chain with F47A
notes: YAP (Yes-associated protein), human, residues 50-171 of NM_001130145.2; also called hYAP Phe96Ala; source: E. coli NiCo21 (DE3), purified (HisTrap, tag cleaved by HRV 3C protease, Resource S, Superdex 75); not shown: His6, N-terminal, cleaved
B6: hYAP^50-171 Leu91Ala (domain or fragment, human, UniProt P46937-1 50-171, looked up)
chain: B1 chain with L42A
notes: YAP (Yes-associated protein), human, residues 50-171 of NM_001130145.2; also called hYAP Leu91Ala; source: E. coli NiCo21 (DE3), purified (HisTrap, tag cleaved by HRV 3C protease, Resource S, Superdex 75); not shown: His6, N-terminal, cleaved
B7: hYAP^50-171 Phe69Ala (domain or fragment, human, UniProt P46937-1 50-171, looked up)
chain: B1 chain with F20A
notes: YAP (Yes-associated protein), human, residues 50-171 of NM_001130145.2; also called hYAP Phe69Ala; source: E. coli NiCo21 (DE3), purified (HisTrap, tag cleaved by HRV 3C protease, Resource S, Superdex 75); not shown: His6, N-terminal, cleaved
B8: hYAP^50-171 Leu68Ala (domain or fragment, human, UniProt P46937-1 50-171, looked up)
chain: B1 chain with L19A
notes: YAP (Yes-associated protein), human, residues 50-171 of NM_001130145.2; also called hYAP Leu68Ala; source: E. coli NiCo21 (DE3), purified (HisTrap, tag cleaved by HRV 3C protease, Resource S, Superdex 75); not shown: His6, N-terminal, cleaved
B9: hYAP^50-171 Met86Ala (domain or fragment, human, UniProt P46937-1 50-171, looked up)
chain: B1 chain with M37A
notes: YAP (Yes-associated protein), human, residues 50-171 of NM_001130145.2; also called hYAP Met86Ala; source: E. coli NiCo21 (DE3), purified (HisTrap, tag cleaved by HRV 3C protease, Resource S, Superdex 75); not shown: His6, N-terminal, cleaved
B10: hYAP^50-171 Arg89Ala (domain or fragment, human, UniProt P46937-1 50-171, looked up)
chain: B1 chain with R40A
notes: YAP (Yes-associated protein), human, residues 50-171 of NM_001130145.2; also called hYAP Arg89Ala; R89A; source: E. coli NiCo21 (DE3), purified (HisTrap, tag cleaved by HRV 3C protease, Resource S, Superdex 75); not shown: His6, N-terminal, cleaved
B11: N-terminally V5-tagged hTEAD4 Asp272Ala (natural protein, human, UniProt Q15561 1-434, looked up)
chain: MEGTAGTITSNEWSSPTSPEGSTASGGSQALDKPIDNDAEGVWSPDIEQSFQEALAIYPPCGRRKIILSDEGKMYGRNELIARYIKLRTGKTRTRKQVSSHIQVLARRKAREIQAKLKDQAAKDKALQSMAAMSSAQIISATAFHSSMALARGPGRPAVSGFWQGALPGQAGTSHDVKPFSQQTYAVQPPLPLPGFESPAGPAPSPSAPPAPPWQGRSVASSKLWMLEFSAFLEQQQDPDTYNKHLFVHIGQSSPSYSDPYLEAVDIRQIYAKFPEKKGGLKDLFERGPSNAFFLVKFWADLNTNIEDEGSSFYGVSSQYESPENMIITCSTKVCSFGKQVVEKVETEYARYENGHYSYRIHRSPLCEYMINFIHKLKHLPEKYMMNSVLENFTILQVVTNRDTQETLLCIAYVFEVSASEHGAQHHIYRLVKE

Biological target: T1, N-Avitagged wt hTEAD4^217-434 (human, UniProt Q15561 217-434, acylated at Cys367 (100%))
T1 construct: TEAD4 (TEA/ATTS domain transcription factor 4), human, residues 217-434; held on streptavidin (SA) chips; also called Wild type; source: purified; not shown: Avitag, N-terminal, kept
T1 sequence (Q15561 217-434): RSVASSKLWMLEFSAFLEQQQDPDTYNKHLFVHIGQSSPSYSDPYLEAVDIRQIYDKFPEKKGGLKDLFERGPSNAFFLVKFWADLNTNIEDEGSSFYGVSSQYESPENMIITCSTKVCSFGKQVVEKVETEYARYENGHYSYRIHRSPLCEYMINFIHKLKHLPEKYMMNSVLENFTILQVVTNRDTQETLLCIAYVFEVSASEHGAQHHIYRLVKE
Test: SPR; N-Avitagged hTEAD4^217-434 proteins immobilised on Series S Sensor Chip SA, YAP^50-171 proteins as analyte; Biacore T200; 25°C (298 K); 50 mM HEPES, 100 mM KCl, 0.25 mM TCEP, 1 mM EDTA, 0.05% Tween 20, 0.05% BSA, 2% DMSO, pH 7.4; Kd from equilibrium data (Kd^eq); upper limit for Kd^eq 200 µM
Conditions: both partners purified

Binder | Kd
B1 | 0.018 µM
B2 | 5.62 µM
B3 | 0.794 µM
B4 | 26 µM
B5 | 4.75 µM
B6 | 30.6 µM
B7 | 6.45 µM
B8 | 0.464 µM
B9 | 2.08 µM
B10 | 27.4 µM

Biological target: wt hYAP (full length) (human, UniProt P46937 1-504)
Sequence (P46937 whole entry): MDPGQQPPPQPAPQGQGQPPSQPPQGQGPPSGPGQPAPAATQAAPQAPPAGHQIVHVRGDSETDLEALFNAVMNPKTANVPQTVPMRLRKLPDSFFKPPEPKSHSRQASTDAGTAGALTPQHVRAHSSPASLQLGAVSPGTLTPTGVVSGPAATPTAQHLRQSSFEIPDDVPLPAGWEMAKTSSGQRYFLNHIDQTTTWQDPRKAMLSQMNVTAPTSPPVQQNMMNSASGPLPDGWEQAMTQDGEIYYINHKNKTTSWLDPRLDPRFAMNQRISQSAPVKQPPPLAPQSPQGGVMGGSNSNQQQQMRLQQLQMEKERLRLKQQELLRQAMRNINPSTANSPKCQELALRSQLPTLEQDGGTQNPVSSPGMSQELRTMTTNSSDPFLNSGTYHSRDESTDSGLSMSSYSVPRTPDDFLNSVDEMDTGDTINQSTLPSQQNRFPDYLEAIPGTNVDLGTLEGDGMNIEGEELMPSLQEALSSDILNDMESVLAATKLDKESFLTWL
Test: cell-based or functional assay
Conditions: not given

Binder | MCAT_Luc reporter luciferase activity in HEK293::MCAT_Luc cells co-transfected with wt hYAP; against wt hTEAD4
B11 | ~4 fold reduction
